Target: the molecule itself
Assay: SEC

B1: thiostrepton resistance methyltransferase Tsr (wild type) (enzyme)
chain: MTELDTIANPSDPAVQRIIDVTKPSRSNIKTTLIEDVEPLMHSIAAGVEFIEVYGSDSSPFPSELLDLCGRQNIPVRLIDSSIVNQLFKGERKAKTFGIARVPRPARFGDIASRRGDVVVLDGVKIVGNIGAIVRTSLALGASGIILVDSDITSIADRRLQRASRGYVFSLPVVLSGREEAIAFIRDSGMQLMTLKADGDISVKELGDNPDRLALLFGSEKGGPSDLFEEASSASVSIPMMSQTESLNVSVSLGIALHERIDRNLAANR
- stoichiometry N: 2

B2: Tsr N129A mutant (enzyme, S. cyaneus, UniProt P18644 1-269, looked up)
chain: MTELDTIANPSDPAVQRIIDVTKPSRSNIKTTLIEDVEPLMHSIAAGVEFIEVYGSDSSPFPSELLDLCGRQNIPVRLIDSSIVNQLFKGERKAKTFGIARVPRPARFGDIASRRGDVVVLDGVKIVGAIGAIVRTSLALGASGIILVDSDITSIADRRLQRASRGYVFSLPVVLSGREEAIAFIRDSGMQLMTLKADGDISVKELGDNPDRLALLFGSEKGGPSDLFEEASSASVSIPMMSQTESLNVSVSLGIALHERIDRNLAANR
- stoichiometry N: 2
